B1: GpH7-A5/GpH7-B3 variant L328_15Y/GpL16-k0 (antibody, human IgG1, kappa)
heavy 1: not shown
heavy 2: not shown
light: DIVMTQSPLSLPVTPGEPASISCQASESLVHSNRNTYLHWYLQKPGQSPQLLIYKVSNRFSGVPDRFSGSGSGTDFTLKISRVEAEDVGVYYCSQNTHVPPTFGQGTKVEIERTVAAPSVFIFPPSDEQLKSGTASVVCLLNNFYPREAKVQWKVDNALQSGNSQESVTEQDSKDSTYSLSSTLTLSKADYEKHKVYACEVTHQGLSSPVTKSFNRGEC
notes: He Ab; copies: 1 + 1 + 2
B2: GpH7-A5/GpH7-B3 variant N325_16H/GpL16-k0 (antibody, human IgG1, kappa)
heavy 1: not shown
heavy 2: not shown
light: B1 light
notes: He Ab; copies: 1 + 1 + 2
B3: GpH7-A5/GpH7-B3 variant P238_10E/GpL16-k0 (antibody, human IgG1, kappa)
heavy 1: not shown
heavy 2: not shown
light: B1 light
notes: He Ab; copies: 1 + 1 + 2
B4: GpH7-A5/GpH7-B3 variant P271_02A/GpL16-k0 (antibody, human IgG1, kappa)
heavy 1: not shown
heavy 2: not shown
light: B1 light
notes: He Ab; copies: 1 + 1 + 2
B5: GpH7-A5/GpH7-B3 variant P238_15Y/GpL16-k0 (antibody, human IgG1, kappa)
heavy 1: not shown
heavy 2: not shown
light: B1 light
notes: He Ab; copies: 1 + 1 + 2
B6: GpH7-A5/GpH7-B3 variant L234_06M/GpL16-k0 (antibody, human IgG1, kappa)
heavy 1: not shown
heavy 2: not shown
light: B1 light
notes: He Ab; copies: 1 + 1 + 2
B7: GpH7-A5/GpH7-B3 variant L328_04F/GpL16-k0 (antibody, human IgG1, kappa)
heavy 1: not shown
heavy 2: not shown
light: B1 light
notes: He Ab; copies: 1 + 1 + 2
B8: GpH7-A5/GpH7-B3 variant P271_11K/GpL16-k0 (antibody, human IgG1, kappa)
heavy 1: not shown
heavy 2: not shown
light: B1 light
notes: He Ab; copies: 1 + 1 + 2
B9: GpH7-A5/GpH7-B3 variant L234_10E/GpL16-k0 (antibody, human IgG1, kappa)
heavy 1: not shown
heavy 2: not shown
light: B1 light
notes: He Ab; copies: 1 + 1 + 2
B10: GpH7-A5/GpH7-B3 variant L235_13S/GpL16-k0 (antibody, human IgG1, kappa)
heavy 1: not shown
heavy 2: not shown
light: B1 light
notes: He Ab; copies: 1 + 1 + 2
B11: GpH7-A5/GpH7-B3 variant P271_01G/GpL16-k0 (antibody, human IgG1, kappa)
heavy 1: not shown
heavy 2: not shown
light: B1 light
notes: He Ab; copies: 1 + 1 + 2
B12: GpH7-A5/GpH7-B3 variant L235_01G/GpL16-k0 (antibody, human IgG1, kappa)
heavy 1: not shown
heavy 2: not shown
light: B1 light
notes: He Ab; copies: 1 + 1 + 2
B13: GpH7-A5/GpH7-B3 variant L234_02A/GpL16-k0 (antibody, human IgG1, kappa)
heavy 1: not shown
heavy 2: not shown
light: B1 light
notes: He Ab; copies: 1 + 1 + 2
B14: GpH7-A5/GpH7-B3 variant L234_20W/GpL16-k0 (antibody, human IgG1, kappa)
heavy 1: not shown
heavy 2: not shown
light: B1 light
notes: He Ab; copies: 1 + 1 + 2
B15: GpH7-A5/GpH7-B3 variant L235_05P/GpL16-k0 (antibody, human IgG1, kappa)
heavy 1: not shown
heavy 2: not shown
light: B1 light
notes: He Ab; copies: 1 + 1 + 2
B16: GpH7-A5/GpH7-B3 variant L234_19Q/GpL16-k0 (antibody, human IgG1, kappa)
heavy 1: not shown
heavy 2: not shown
light: B1 light
notes: He Ab; copies: 1 + 1 + 2
B17: GpH7-A5/GpH7-B3 variant L328_18N/GpL16-k0 (antibody, human IgG1, kappa)
heavy 1: not shown
heavy 2: not shown
light: B1 light
notes: He Ab; copies: 1 + 1 + 2
B18: GpH7-A5/GpH7-B3 variant L235_16H/GpL16-k0 (antibody, human IgG1, kappa)
heavy 1: not shown
heavy 2: not shown
light: B1 light
notes: He Ab; copies: 1 + 1 + 2
B19: GpH7-A5/GpH7-B3 variant L235_04F/GpL16-k0 (antibody, human IgG1, kappa)
heavy 1: not shown
heavy 2: not shown
light: B1 light
notes: He Ab; copies: 1 + 1 + 2
B20: GpH7-A5/GpH7-B3 variant P238_19Q/GpL16-k0 (antibody, human IgG1, kappa)
heavy 1: not shown
heavy 2: not shown
light: B1 light
notes: He Ab; copies: 1 + 1 + 2
B21: GpH7-A5/GpH7-B3 variant P271_07I/GpL16-k0 (antibody, human IgG1, kappa)
heavy 1: not shown
heavy 2: not shown
light: B1 light
notes: He Ab; copies: 1 + 1 + 2
B22: GpH7-A5/GpH7-B3 variant L234_14T/GpL16-k0 (antibody, human IgG1, kappa)
heavy 1: not shown
heavy 2: not shown
light: B1 light
notes: He Ab; copies: 1 + 1 + 2
B23: GpH7-A5/GpH7-B3 variant P271_09D/GpL16-k0 (antibody, human IgG1, kappa)
heavy 1: not shown
heavy 2: not shown
light: B1 light
notes: He Ab; copies: 1 + 1 + 2
B24: GpH7-A5/GpH7-B3 variant L234_03V/GpL16-k0 (antibody, human IgG1, kappa)
heavy 1: not shown
heavy 2: not shown
light: B1 light
notes: He Ab; copies: 1 + 1 + 2
B25: GpH7-A5/GpH7-B3 variant L234_13S/GpL16-k0 (antibody, human IgG1, kappa)
heavy 1: not shown
heavy 2: not shown
light: B1 light
notes: He Ab; copies: 1 + 1 + 2
B26: GpH7-A5/GpH7-B3 variant L234_07I/GpL16-k0 (antibody, human IgG1, kappa)
heavy 1: not shown
heavy 2: not shown
light: B1 light
notes: He Ab; copies: 1 + 1 + 2
B27: GpH7-A5/GpH7-B3 variant L235_10E/GpL16-k0 (antibody, human IgG1, kappa)
heavy 1: not shown
heavy 2: not shown
light: B1 light
notes: He Ab; copies: 1 + 1 + 2
B28: GpH7-A5/GpH7-B3 variant N325_09D/GpL16-k0 (antibody, human IgG1, kappa)
heavy 1: not shown
heavy 2: not shown
light: B1 light
notes: He Ab; copies: 1 + 1 + 2
B29: GpH7-A5/GpH7-B3 variant L328_14T/GpL16-k0 (antibody, human IgG1, kappa)
heavy 1: not shown
heavy 2: not shown
light: B1 light
notes: He Ab; copies: 1 + 1 + 2
B30: GpH7-A5/GpH7-B3 variant L234_18N/GpL16-k0 (antibody, human IgG1, kappa)
heavy 1: not shown
heavy 2: not shown
light: B1 light
notes: He Ab; copies: 1 + 1 + 2
B31: GpH7-A5/GpH7-B3 variant P271_03V/GpL16-k0 (antibody, human IgG1, kappa)
heavy 1: not shown
heavy 2: not shown
light: B1 light
notes: He Ab; copies: 1 + 1 + 2

These binders were tested against T1, FcγRIIIa extracellular domain, C-terminal His tag (human, UniProt P08637 17-208) (assay: SPR, binding activity relative to GpH7-A5/GpH7-B3/GpL16-k0 (=100)).
T1 construct: extracellular domain; also called 3a
T1 sequence (P08637 other isoform, or with tags, fused parts or gaps): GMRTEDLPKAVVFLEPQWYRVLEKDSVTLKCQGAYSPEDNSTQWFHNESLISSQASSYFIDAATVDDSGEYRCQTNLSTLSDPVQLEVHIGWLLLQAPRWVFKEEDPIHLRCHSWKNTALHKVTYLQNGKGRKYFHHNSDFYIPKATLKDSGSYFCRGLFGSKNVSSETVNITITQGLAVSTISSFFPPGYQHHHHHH

He/Con 3a [%] | Binder
70.2 | B1
68 | B2
98.9 | B3
83.7 | B4
61 | B5
82.9 | B6
81.5 | B7
92.5 | B8
111 | B9
67.2 | B10
119 | B11
56.7 | B12
69.7 | B13
103 | B14
68.6 | B15
77.1 | B16

He/Con 3a [%] | Binder
51.1 | B17
57.1 | B18
76.4 | B19
52.7 | B20
80.2 | B21
69.8 | B22
97.7 | B23
88.3 | B24
68.1 | B25
99.5 | B26
85.6 | B27
53 | B28
77.4 | B29
88.2 | B30
73.5 | B31

Reference: US20260167699A1 (Chugai, published 2026)
